“And” between values parts separate entries of the source, which are not always exact repeats. Equal values may be shown once.

For assay [1], the target named is T1, bovine alpha-lactalbumin (α-LA), calcium-depleted (bovine), P00711.
T1 chain: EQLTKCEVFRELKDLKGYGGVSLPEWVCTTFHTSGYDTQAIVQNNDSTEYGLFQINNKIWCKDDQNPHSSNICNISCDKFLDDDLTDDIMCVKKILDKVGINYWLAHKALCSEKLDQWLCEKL
Kind of assay: MALDI-TOF-MS; 1:1 v/v mixture of 0.1% aqueous trifluoroacetic acid MALDI matrix and 50 mM sinapinic acid ionization matrix. The settings on record: remark: other sources report otherwise.

The target of assay [2] is T1, bovine alpha-lactalbumin (α-LA), …. Kind of assay: AUC; sedimentation velocity, 50,000 rpm, 20 °C, absorbance at 280 nm, c(s) continuous distribution analysis with SEDFIT. The settings on record: remark: other sources report otherwise.

B1: bovine alpha-lactalbumin (α-LA), calcium-depleted, P00711 20-142 (natural protein)
chain: EQLTKCEVFRELKDLKGYGGVSLPEWVCTTFHTSGYDTQAIVQNNDSTEYGLFQINNKIWCKDDQNPHSSNICNISCDKFLDDDLTDDIMCVKKILDKVGINYWLAHKALCSEKLDQWLCEKL
As usually defined, the stoichiometry N is the number of molecules, sites or subunits per partner or assembly. Regarding B1, the stoichiometry N in assay [1] is 2 and 3 and 4; in assay [2], 2 and 3.

These data come from article PMC7806473.
